Test results as given in US20160009772A1, “CELL PENETRATING PEPTIDES WHICH BIND IRF5” (priority 2012, published 2016).

Biological target: Wild type IRF5 (222-467) (human) (UniProt Q13568)
Experiment: TR-FRET

Chain of Wild type IRF5 (222-467) (Q13568 232-477): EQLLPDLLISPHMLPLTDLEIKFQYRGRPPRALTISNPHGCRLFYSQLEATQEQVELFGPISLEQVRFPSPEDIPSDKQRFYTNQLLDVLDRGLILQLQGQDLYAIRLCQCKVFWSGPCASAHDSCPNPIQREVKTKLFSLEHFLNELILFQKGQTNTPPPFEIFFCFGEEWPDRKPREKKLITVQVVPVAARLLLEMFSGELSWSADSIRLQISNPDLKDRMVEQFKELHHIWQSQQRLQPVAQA

| Substance | Kd [nM] |
| --- | --- |
| Wild type IRF5 (222-467) (from UniProt Q13568 232-477) | 4210 |
| IRF5(222-467, S430D), S430D phosphomimetic construct of IRF5 (222-467) (from UniProt Q13568 222-467) | 1580 |
